A short description of data set [1]: Net charge of Avidin estimated from reported electrokinetic zeta potential. It counts as physicochemical. The note with it: Grahame equation from zeta potential, spherical shape diameter ~7 nm. An excerpt: The zeta potential of Avidin molecules in dilute solution of DI water at pH 5 has been reported to be 10 mV (Dougherty et al., Langmuir, 2009). Using Grahame Equation of electrokinetics (Grodzinsky et al., New York: Garland Science, 2011) that related zeta potential to particle surface charge density, and assuming that Avidin attains a spherical shape (diameter ˜7 nm), the zeta potential of 10 mV corresponds to an effective net molecular charge of ˜+7.3.

The nature of data set [2]: Competitive binding of FITC-Avidin and unlabeled Avidin in cartilage (binding isotherm fit). Also noted: species or system bovine. The settings on record: best fit of binding isotherm to FIG. 13 data. Here is the method:
To test this hypothesis, competitive binding experiments were performed in which 3 mm diameter cartilage disks were equilibrated for 3 days in 300 μl buffer containing a fixed amount of (fluorescently labeled) FITC-Avidin (1 μM) and graded amounts of unlabeled Avidin (0, 10, 76, 100, and 203 μM). The disks were split into half disks to reduce the time needed for equilibration, which was performed in 96 well plates at 37° C. The uptake ratio, RU, was measured and plotted versus the total bath concentration of Avidin (labeled+unlabeled, FIG. 13), where RU is defined as the total concentration of Avidin inside the cartilage (bound (CB) plus free (CF)) per intra-tissue water weight, normalized to the Avidin concentration in the equilibration bath (CBath):
Labeled and unlabeled Avidin were held to partition into the cartilage identically. At very low concentration of the labeled Avidin (≦1 μM), a high uptake of ˜120 was observed. When unlabeled Avidin was added to the bath, both species (labeled and unlabeled) could compete for the same (constant) number of binding sites available in the tissue (site density NT). […] To model the data of FIG. 13, a first-order, bimolecular, reversible reaction was produced to describe binding of Avidin to a single dominant binding species within cartilage. A theoretical model was adopted, (Garcia et al., Arch Biochem Biophys, 2003) previously used for characterizing the binding of soluble insulin like growth factor-1 (IGF-1) to IGF-binding proteins (IGF-BPs) that are uniformly enmeshed and fixed within cartilage matrix. According to this model, the equilibrium molar concentration of free solute (CF), bound solute (CB), intra-tissue binding site density (NT) and the equilibrium dissociation constant (KEQ) are related by the binding isotherm:
[formula] which is similar in form to a Langmuir adsorption isotherm. […]
[formula] […] Thus, K is determined by both steric hindrance and electrostatic (Donnan) interactions. […]

Data set [3] is described as follows: Net charge of Avidin estimated using Donnan equilibrium. In kind it is physicochemical. The note with it: assuming uptake entirely due to Donnan partitioning, no binding. An excerpt: However, it is not certain whether the effective charge sensed during transport and uptake would include all these residues, or whether certain residues may be internal and less accessible to charge-charge interactions within the cartilage extracellular matrix. In addition, the unknown extent of Avidin glycosylation may contribute additional net negative charge that would decrease the total net charge. However, this estimate assumes that all such residues are ionized in aqueous solution and that none of these residues are internal (buried) and thereby inaccessible to charge-charge interactions within the cartilage matrix. Furthermore, this estimate neglects the effects of Avidin glycosylation which could add additional negative charge groups to the total sum. […]
[formula] (Byun et al., Arch Biochem Biophys, 2010) was measured to be, −0.13 M. Rearranging Eq. (12) gives: […]
Donnan theory (Grodzinsky et al., New York: Garland Science, 2011) is based on the assumptions that (1) all freely moving charged species (i.e., Avidin and bath ions) will partition into a charged tissue according to Boltzmann statistics and, (2) the net charge in the tissue is zero by electroneutrality (i.e., the sum of the tissue fixed charge density and mobile carrier concentrations). By fitting the Donnan theory to the equilibrium uptake data of FIG. 12A, the effective net charge of Avidin was calculated to be +6.2. […]

Values joined by “and” are separate entries in the source; they are usually repeats but may differ in a detail not shown here. Equal values may be shown once.

As to “Avidin: positively charged globular glycosylated tetrameric protein, pI 10.5, 66 kDa, diameter ~7 nm (Invitrogen); SEQ ID NO 1”, the “effective net molecular charge” value in data set [1] is “~+7.3”. In addition, in data set [2], the “equilibrium partition coefficient K” value is around 6. Further, the Kd in data set [2] (read-out: equilibrium dissociation constant KEQ) is 150 µM and ~150 µM. Also, the “upper estimate of effective net charge” value in data set [3] was “+13 to +14”.

These data come from patent US9289506B2, “Surface binding of nanoparticle based drug delivery to tissue” (Massachusetts Institute of Technology, priority 2013, dated 2016).
